Entries after “also recorded” stand apart in the source; their conditions may differ.
T1: human FSTL1 (Homo sapiens, UniProt Q12841)
T1 construct: AAA linker + 10xHis (C); made in house; host or cells: Expi293 (transient expression; purified from culture supernatant on HisPur Cobalt Resin)
T1 sequence (Q12841 with tags, fused parts or gaps): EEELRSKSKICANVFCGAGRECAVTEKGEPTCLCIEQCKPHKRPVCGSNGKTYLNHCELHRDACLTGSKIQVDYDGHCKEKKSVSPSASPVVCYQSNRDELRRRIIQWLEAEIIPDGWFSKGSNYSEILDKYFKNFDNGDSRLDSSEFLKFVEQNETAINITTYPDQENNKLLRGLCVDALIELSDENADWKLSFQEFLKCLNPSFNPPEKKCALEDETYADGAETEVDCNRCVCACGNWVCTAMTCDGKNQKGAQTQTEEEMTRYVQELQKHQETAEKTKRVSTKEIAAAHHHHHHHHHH

B1: #8-1: chicken-mouse chimeric anti-FSTL1 antibody clone; variable regions SEQ ID NO: 791 (light), 793 (heavy) (antibody, V domains shown)
VH: AVTLDESGGGLQTPGGALSLVCKGSGFTFSSFNMFWVRQAPGKGLEWVAGIGKDGVPKYGAAVDGRATISKDNGQSTMRLQLNNLRAEDTGTYFCAKAAGGCSYDWCGIYAGDIDTWGHGTEVIVSS
VL: ASTQPSSVSANPGEAVKITCSGGSGSYYGWYQQKSPGSAPVTVIYNNNQRPSDIPSRFSGSKSGSTATLTITGVQAEDEAVYFCGGYDSSSGHGGIFGAGTTLTVL
modifications: mouse constant regions
B2: #33: chicken-mouse chimeric anti-FSTL1 antibody clone; variable regions SEQ ID NO: 823 (light), 825 (heavy) (antibody, V domains shown)
VH: AVTLDESGGGLQTPGGGLSLVCKASGFTFSSFNMNWVRQAPGKGLEYVAEISGTGSSTYYGSAVKGRATISRDNGQSTVRLQLNNLRAEDTATYFCARGDGAYSIDAWGHGTEVIVSS
VL: ASTQPSSVSANPGETVEITCSGDSSYYGWFQQKSPGSAPVTVIYDNTNRPSDIPSRFSGSKSGSTATLTITGVRAEDEAVYYCGGYDSSTYDGIFGAGTTLTVL
modifications: mouse constant regions
B3: #6-55: chicken-mouse chimeric anti-FSTL1 antibody clone; variable regions SEQ ID NO: 783 (light), 785 (heavy) (antibody, V domains shown)
VH: AVTLDESGGGLQTPGGALSLVCKGSGFTFTSVTMQWVRQAPGKGLEWVASVCSGSSTYYAPAVKGRATISRDNGQSTVRLQLSNLRPEDTGTYYCAKIAGRARWSCTSAAYNIDAWGHGTEVIVSS
VL: ASTQPSSVSAIPGETVKITCSGGGNNYGWYQQRSPGSAPVTVIYYNDNRPSNIPSRFSGSTSGSTSTLTITGVQADDEAIYYCGSWDSNTDSGIFGAGTTLTVL
modifications: mouse constant regions
B4: #7-34: chicken-mouse chimeric anti-FSTL1 antibody clone; variable regions SEQ ID NO: 787 (light), 789 (heavy) (antibody, V domains shown)
VH: AVTLDESGGGLQTPGGGLSLVCKASGFTFSSVTMQWVRQAPGKGLEWVASICSGSSTYYGPAVKGRATISRDNGQNTVRLQLNNLRAEDTATYYCAKIVGRGRWSCTSAAYNIDAWGHGTEVIVSS
VL: ASTQPSSVSANPGETVKITCSGGGNNYGWYQQKSPGSAPVTVIYYNNNRPSNIPSRFSGSTSGSTSTLTITGVQAEDEAVYYCGSYEGSTDSGIFGAGTTLTVL
modifications: mouse constant regions
B5: #13: chicken-mouse chimeric anti-FSTL1 antibody clone; variable regions SEQ ID NO: 815 (light), 817 (heavy) (antibody, V domains shown)
VH: AVTLDESGGGLQTPGGGLSLVCKASGFTFSSVTMQWVRQAPGKGLEWVASICSGSSTYYGPAVKGRATISRDNGQNTVRLQLNNLRAEDTATYYCAKIVGRGRWSCTSAAYNIDAWGHGTEVIVSS
VL: ASTQPSSVSANPGETVKITCSGGGNNYGWYQQKSPGSAPVTVIYNNNNRPSNIPSRFSGSKSGSTNTLTITGVQAEDEAVYYCGSYDSSSDSGIFGAGTTLTVL
modifications: mouse constant regions

What was measured:
[1] = test system: GFP-positive and Snail-positive B16-F10 tumor cells; experiment: Snail-positive B16-F10 bone metastasis model, intraperitoneal administration (Example 18); assay type: in vivo, mouse; settings: intraperitoneal 10 mg/kg on days 5 and 10; FIG. 106A
Source text: 1. Experiment Group (n=5) • 1. No treatment (0.9% NaCl as a sham) • 2. Control IgG (anti-DNP) • 3. Anti-FSTL1 Clone #6-55 • 4. Anti-FSTL1 Clone #7-34 • 5. Anti-FSTL1 Clone #8-1 […]
• Effects on the growth of subcutaneous tumor (calculation of tumor volume by tumor size measurement): measured 7, 11, and 14 days after tumor implantation (FIG. 106B) • Effects on bone metastasis (GFP-positive tumor cells in bone marrow or the spleen) (FIGS. 106A and 106C) • Effects on MSC expansion (CD45− negative cells in bone marrow or the spleen) (FIGS. 106A and 106C) • Effects on weight loss (FIG. 106A) • Effects on the expansion of immunosuppressive Treg cells (CD4-positive and Foxp3-positive cells in the spleen) (FIG. 106C) • Other immunosuppressive properties (FIG. 106C)
In Example 17, the antibody was administered into tumor according to the purpose of “inhibiting metastasis from a primary focus to bone” as previously conducted by the present inventors. […] Specifically, antitumor effects and immunosuppression-mitigating effects were comparatively analyzed by the intraperitoneal administration (systemic administration) of the anti-FSTL1 antibody using bone metastasis models in which mouse melanoma cells (B16-F10) forced to express Snail were subcutaneously and intravenously transplanted in C57BL/6N mice. […]

[2] = test system: GFP+F10-snail+ tumor cells; experiment: In vivo drug efficacy of each anti-FSTL1 antibody clone, GFP+F10-snail+ tumor model (Example 32); design: species or system mouse; settings: intraperitoneal 10 mg/kg on days 4 and 7; for mouse survival period (life-prolonging effect): FIG. 121
Description: • Day 0: transplantation of GFP+F10-snail+ tumor cells (3×10^5 cells subcutaneously & 2×10^4 cells intravenously) • Day 4: intraperitoneal administration of the antibody (first dose, 10 mg/kg) • Day 7: intraperitoneal administration of the antibody (second dose, 10 mg/kg)
Subcutaneous tumor was measured 4, 7, 10, 14, 17, 20, and 23 days after tumor cell transplantation.

[3] = test system: C57/BL/6 mouse-derived bone marrow cells; experiment: MSC induction inhibition test using mouse bone marrow cells, FSTL1 stimulation (Example 27); assay type: cell-based; settings: FSTL1 20 ng/mL; antibody 10 μg/mL; 8 days; FIG. 21A
Description: In this Example, the inhibitory activity of the anti-FSTL1 antibody was confirmed in an experimental system of mesenchymal stem cell induction while a FSTL1 inhibitory effect on MSC expansion induced not only by FSTL1 but by Snail+ tumor cells was also evaluated. For specific operation, each antibody (10 μg/mL) was added to systems in which C57/BL/6 mouse-derived bone marrow cells were stimulated with FSTL1 (20 ng/mL) or a culture supernatant of tumor cells. After culture for 8 days under stimulation, cell fraction CD45(−) cells (MSCs) containing MSCs at a high rate and CD45(−)CD146(+)ALCAM(+) cells (sMSCs) increasing in number in association with cancer metastasis were analyzed by flow cytometry in the same way as in Example 14, and the number of cells per culture system was counted. In this Example, mouse immunoglobulin manufactured by BioLegend, Inc. (#401408, Cone MG1-45) was used as a control antibody.

human FSTL1 [4] = molecular target: T1, human FSTL1; experiment: ELISA binding activity of purified antibody against human FSTL1 (Example 2); settings: FIG. 1B/31B
Description: (§1) The reactivity of the obtained antibody clones described above with FSTL1 was evaluated by ELISA under the following conditions.
(Table 2 ELISA conditions for binding activity evaluation of purified antibody) Antibodies used: anti-dinitrophenyl (DNP) antibody (negative control), #5-2, #5-3, #5-8, #5-10, #5-43, #6-55, and #7-34
FIGS. 2 and 3 show results of evaluating binding activity under the condition of Table 3 as to clones differing in screening and antibody purification timings.
(§2) Antibodies used: anti-dinitrophenyl (DNP) antibody (negative control), #5-2, #5-3, #5-8, #5-10, #5-43, #6-55, and #7-34
FIGS. 32 and 33 show results of evaluating binding activity under the condition of Table 3 as to clones differing in screening and antibody purification timings.

human FSTL1 [5] = molecular target: T1, human FSTL1; experiment: ELISA, binding activity of purified antibody against human FSTL1 (Example 2); settings: cross reactivity test; antibody diluted from 1000 ng/ml
Description: as §1, §2
FIGS. 64 and 65 show results of evaluating binding activity under the condition of Table 3 as to clones differing in screening and antibody purification timings.

Row | Molecule | anti-weight loss effect [1] | mouse survival period (life-prolonging effect) [2] | MSC induction inhibitory activity (CD45(−) MSCs, CD45(−)CD146(+)ALCAM(+) sMSCs) [3] | suppressive activity against subcutaneous tumor growth ([2]; vs control antibody group, FIG. 120) | binding activity against human FSTL1 (human FSTL1 [4]) | binding activity against human FSTL1 (human FSTL1 [5])
1 | B1 | confirmed |  |  |  |  | 
2 | B2 |  | therapeutic effects equal to or higher than those of #6-55 | strong inhibitory effect equivalent to or higher than that of #6-55; also recorded: high MSC induction inhibitory activity equivalent to or higher than that of #6-55 |  |  | 
3 | B3 | confirmed | statistically significant life-prolonging effect |  | statistically significant suppressive activity | specific and equivalently strong binding activity | specific and equivalently strong binding activity
4 | B4 |  |  |  |  | specific and equivalently strong binding activity | specific and equivalently strong binding activity
5 | B5 |  |  | strong inhibitory effect equivalent to or higher than that of #6-55 |  |  | 

Source: US20180021429A1, “ANTICANCER AGENTS OR ANTIMETASTATIC AGENTS USING FSTL1 AND COMBINATION DRUG THEREOF” (PHARMA FOODS INTERNATIONAL CO., LTD., priority 2015, published 2018)
